# Measurements published in a protein production outcome set (Wang et al. 2014).
# Assay: label from the status in PepcDB records
row,Sequence,protein production
1,MPHSTTEPRRDMPDALISIVIPCRNEAANLPLLIDEIEAAMAGRHFELIIVNDGSTDETAAVLTEQAALRSFPVRELRHQKSAGQSLSVRSGAWAARGGIVATIDGDGQNDPQYIPVLVDALRQAGPDFGAAQGQRLKRRDSKVKQLASRFANWLRNAILHDETRDTGCGLKAVHTEILRKLPFFDGTHRFVPALVIQEGYRVVHCDVVDRSRRHGKSNYGIFDRGLQGALDLGGVWWLRRRRRRMPKVEEIKRV,failed
2,MPIAGIPYTEIVMAIVAFVLGFLVGYLIKNVIKIGIIVLAIIVILIAIGVVSPHTVVSGLQSMGVYATQAEQYVSRIINYLPYNSILFIIGFVIGLVKG,failed
3,MPIRDDISWPPSAVCSVSLILHLPGRFGHVSVAHLLLDHGADVNAQNRLGASVLTVASRGGHLGVVKLLLEAGAFVDHHHPSGEQLGLGGSRDEPLDITALMAAIQHGHEAVVRLLMEWGADPNHAARTVGWSPLMLAALTGRLGVAQQLVEKGANPDHLSVLEKTAFEVALDCKHRDLVDYLDPLTTVRPKTGQAACPPWLHRGPQIVFMWLKLRIALLEGHAELRVQPCRPLRLRKWCA,not failed
4,MPKIRIRKFWPSGAGTVPGVLLIALALGCVGHRAKFADETFSSDEAEIRSAVEPLPPKAQLVYLVLAGELAGQRGRYEVALEHYLQAARLSRDGRLAERAMQIALFIKKYPEAVESVALWLKAEPRHAGARRMATLLYLKEGRRDEAVTQMKVLLTLPDADLENTLIELVKVLGNEVPRQDATEFMDALLRAFPAMADLHFAAALLAANQGEFQQALSETEEALKLHPDWGRARVLQAQVMAQMGDSATAGDLIQRALKRDPDNARLRLIYSQFLIKSGDIEGARRELERIVAKEPGNQDARFGLGLALIDLGRLDAARREFAALAASEKWRVQAYFYLGLIDARKGRLNEALDWFDRVTTGPTEFDARVNGITVLISLGRLTEARTRLADIRRRFPNESVRLYLLEAELLSKNRDYEDAFNLLTDALGENPGQSDLLYARALVAENLGRFDVLEADLRQVLEKSPDDPNALNALGYTLVERGERLDEAKGYLDRAIRLKPDDPAILDSYGWLLYRLRKYAEAIEYLRRAYDKVQDPEIASHLGEVLMESGRRQEARKILREAWKKAPEHEDMQRIRARYPELLAP,failed
5,MPKKGSRPDRPSRRCARMTSTVPALGTRSAEGSALQAVLLDMDGTLVDTEGFWWDVEAEVFAALGHPLDESWRHVVVGGPMARSAGFLIEATGADITLAELTVLLNDGFEARIGRTLPLMPGAARLLAELAAHEIPTALVSASHRRIIDRVLTSLGSQHFALTVAGDEVARTKPFPDPYLLAASGLGAEPARCAVIEDTATGVAAAEAAGCRVVAVPSVAPIAPAARRTVVTSLEEVDLPFLRGLMTEMR,failed
6,MPKKVVPEEARRRRRPTRQGAVLSEGLIVRTALRMLREHGTGGLTARRLGAALGADPSTLYRYFAGMDDLARAVGNELMGQALDGWTAQGDWRADLRSLGLALHSSYLAHPQAAVLTASRVSGRPREIAVDEAILGLLRGAGLTDRAAVRFYHAFIDLALAFAALDAGSLALPEEARRSDEDMWGTTYARLPAETHPNIAATAERLAARMPHSAYPVVLDTLLDGIAAELTGTAPEM,not failed
7,MPKPLRCITIAFTDLPNEYKIVLGYLTYHSGRLFNQALYSIKTKQAKVNTYDLYNKLKDNSLHLKNLQSRCAQIVLDELVRAFKNWFEFLHNPEKFKGQEVKPPKFRPKNKPHRTITYDQTGFKVVGTKIRLSLSKALRQWLKEKHGIELKYLWLDTGLELDERLIKNIQIVPKANAKEFELHIIYEKPQNGEKLLKQDKVMVLDPNSSNFFAIVIEGIPQPYIIDGNGLKSLLRKYLKKIASLQSRLEGAKKKGFLTHFLEERISRLWLKVKRLLKHYAHTISNLILELALKYGVRKIYIGDAARNKNKESKLSSVADQIWSLLPHGKVKEYLEYKAKEYGIEVEYISEAYTSGVDSSVEGAVNKETYTPEARVKRGLFRTRLLGFLNADVNACRNLLKKLGKFDLISGILRPIRLRVFFKLRESSSAIPLYGGIGRSRGGVNLPVVVRHSKEGVNPPEAPHL,failed
8,MPKSADQGGSPASASHEALRHILDAGASMGGLQGLDEAQQQALYAIGHGAYEQGRYADALKMFCLLVACDPLEARYLLALGAAAQELGLYEHALQQYAAAAALQLDSPRPLLHGAECLYALGRRRDALDTLDMVLELCGSPERAALRERAELLRRSYARAD,failed
9,MPKVSVVIPAYNAMPYLPETLESVLRQTYHDFEVVVVNDGSSDNTEEWVSQILDPRLKLISQANQGLAGARNTGIVNASGEYIAFLDADDIWEPTKLAKQVSVLDENPTVGLVYTWVAYIDEQGKSTGKIFKNQVEGYVWPQLTEHNIVECGSVALVRRVCFEKMGLFDRNLGSYVEDWDMWLRIATSYDFKVVKEALVYYRQRSNSASKNWEAMAHSFAIVIEKAFATASQDLQVLKNKSYGFTYLCLAWKPLQSFQKDYQKSREFCQQAVAYYPSLRFSQEYIRLSIAINLMRWFGADGYSKLLPLFHTMRRVKLALQK,failed
10,MPKVSVVTGFYNRCEHLERTIESILNQTYSDFELIVFDDASTDGTASRLLELKEKYDDPRFRFIIHEENKGFVKGLSEAISGAKGQYIAVQGSGDVSLPRRLELQVEFLDANPSVGAVGGAIYNIQEDTGTRNPQRFEKPIATFDDLLTSNPFTHGEVMYRLDLYKSIGGYRSGFTFAQDRDLWLRMAKKADLGIIPDFLYHRYTLLDGVSFVPDKTIRQRCFSEAAVRLALMPEEEGALAYSRLEAEGPTAVVPIADRAVQKFVPKAAIRLCLYGAPETGLHMARDYIQNPLRRTIVVVLISIYSSRLIKPLQDILYKSIFKGVSISKPIKSSLVKFTRRIQGK,failed
11,MPLCLKINKKHGEQTRRILIENNLLNKDYKITSEGNYLYLPIKDVDEDILKSILNIEFELVDKELEEKKIIKKPSFREIISKKYRKEIDEGLISLSYDVVGDLVILQISDEVDEKIRKEIGELAYKLIPCKGVFRRKSEVKGEFRVRELEHLAGENRTLTIHKENGYRLWVDIAKVYFSPRLGGERARIMKKVSLNDVVVDMFAGVGPFSIACKNAKKIYAIDINPHAIELLKKNIKLNKLEHKIIPILSDVREVDVKGNRVIMNLPKFAHKFIDKALDIVEEGGVIHYYTIGKDFDKAIKLFEKKCDCEVLEKRIVKSYAPREYILALDFKINKK,not failed
12,MPLPPSNGMGTAALVLGIISTVVFCLWPLAIVMGVLSVVFGVIGRRRARRGEATNAGQALAGIICGAVGIVLGVAFMVIIFAAAESSSDPWSTTDDSYSTSLVVHADR,failed
13,MPLSYLSPSSSEERSDDPSKYDGDFGVPQICFCGKQLDLGWDLAVHEQCFCIDKRFGEHRELIQNAFKFGGDSNRLQINQIRAEIEDLKDRLDKKDAEITRLMDALGKK,failed
14,MPLVLDLARPVSEEELRRLSELNPGYQWERSPEGRLWVSPTGGESGRRSLQLAYQLARWNEERGLGVVFDSSTGFKFPDGSILSPDAAFVERGAWEALSEAEREGFPPLAPKAVFEVRSASQDPEELRAKMGIYLRNGVLLGVLVDPYARAVEVFRPGKPPLRLEGVERVSLDPELPGFALSLPPLW,not failed
15,MPMPTMSQAPHSVRPLNRGHWIATYFIGVAGLSLALMLVLNLILLTTSQNPGKALLDSLSFSVAVLMVSLVLITLIAALPCILFFWLAQRFTWRHLWIYLVSGALAAQFAIPVMTKLLPELFNLPHGVSAALHYLQLASMFGGCGVFMGGLFWWRSGRHLR,failed
16,MPMTVVSGRFSTALLPTCFSLSRLHSVKYAAQRRVVFVSRSAHASSASVSVETNSNSNVDFVIEKKDKNRGEKKILACPICYNSLAWISQPNGLIESAASGIQVQCNTCKRSYSGNETHLDLAVASGSKRYSEPMPLSTELFRTPLVSFLYERGWRQNFIWGGFPGPEKEFEMAKAYLKPVLGGNIIDASCGSGMFSRLFTRSDLFSLVIALDYSENMLRQCYELLNKEENFPNKEKLVLVRADIARLPFLSGSVDAVHAGAALHCWPSPSSAVAEISRVLRPGGVFVATTFIYDGPFSFIPFLKNLRQEIMRYSGSHIFLNERELEDICKACGLVNFTRVRNGPFIMLSATKPS,failed
17,MPNMGIEKLYVSQQLTDSAAGMTFTKPQYYKYVQELSLKPKVNSASAYAENRKVDQDTQFDSCDVSINLFQMTSSQRAFMLGQSLAGGGGAIGALNDKAPWITLLYKAPIKVDDTIYYRYGVIYKTQFQPPDDDYKTTEGKPDFSQVPKISGSAQPTEWSFKDGKLEKHPWEWHVDTCDPNCPENIDDTWFNSVSIPSLVTYGSLSLSASSPKDGATGISLDTKPSLTFNNPIMNATSILLYNVSDGATVNTTTSSDSSGKIITITPSTNLVANKNYVLVVQDVTDLYGQTLDTQLIRFTTATAASLEHHHHHH,not failed
